From patent publication US20240317816A1, “PEPTIDES FOR IMMUNOTHERAPY” (Genevive, Inc., priority 2021, published 2024)
Where no end group is shown, it is not given here.

What was measured:
[1] = target: T1, human chemokine (C-X-C motif) receptor 3 (Homo sapiens, UniProt P49682); assay: Positive allosteric modulator assay method 1 (PAM1), Tango CXCR3-bla U2OS; format: cell-based; settings: retro-inverso peptide vs SG-3-00802
T1 construct: TEV protease site; Gal4-VP16 transcription factor ('Ga14-VP16' [sic]); Tango cell line; host or cells: Tango GPCR-bla U2OS
T1 sequence (P49682 1-368): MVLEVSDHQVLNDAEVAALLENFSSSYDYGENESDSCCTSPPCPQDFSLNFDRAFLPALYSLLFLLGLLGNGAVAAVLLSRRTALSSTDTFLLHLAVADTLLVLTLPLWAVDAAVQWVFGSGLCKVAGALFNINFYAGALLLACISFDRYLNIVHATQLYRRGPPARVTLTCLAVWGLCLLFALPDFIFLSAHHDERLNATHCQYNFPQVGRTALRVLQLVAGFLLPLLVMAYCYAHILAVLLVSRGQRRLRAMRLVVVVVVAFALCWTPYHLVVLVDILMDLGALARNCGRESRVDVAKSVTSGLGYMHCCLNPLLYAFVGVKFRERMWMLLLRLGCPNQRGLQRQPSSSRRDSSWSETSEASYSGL
Excerpt: To assay positive allosteric modulator activity of SG-3-00802 (SEQ ID NO: 1) and SG-3-006683 in CXCR3 cell lines, the cell line Tango™ CXCR3-bla U2OS was used in a positive allosteric modulator assay with two different methods, as described below.
(§1) Tango™ CXCR3-bla U2OS cells contain the human chemokine (C-X-C motif) receptor 3 linked to a TEV protease site and a Ga14-VP16 transcription factor stably integrated into the Tango™ GPCR-bla U2OS cell line. This parental cell line stably expresses a beta-arrestin/TEV protease fusion protein and the beta-lactamase reporter gene under the control of a UAS response element. The Tango™ CXCR3-bla U2OS cells have been functionally validated for a response to I-TAC (CXCL11).
In positive allosteric modulator assay method 1 (PAM1), cells were diluted in Assay Media to an appropriate cell density and were added to the assay plate. Peptides were added at increasing concentrations (1 nM-20 mcM) to the cells in the assay plate and incubated for 30 minutes. Ligand (CXCL9, CXCL10, or CXCL11) was added at an EC20 to all wells containing test compound. The assay plate was incubated for 16 hours at 37° C. Substrate Loading Solution was added to the assay plate and incubated for 2 hours at room temperature, in the dark. The assay plate was read on a fluorescence plate reader and the data was analyzed. PAM activity was calculated as follows:
% of PAM=((Test compound−Unstimulated)/(Stimulated−Unstimulated))×100.

CXCR3 = target: T2, CXCR3 (Homo sapiens, UniProt P49682); assay: Positive allosteric modulator assay method 2 (PAM2), CXCR3-bla U2OS; format: cell-based; design: TEV protease site; Gal4-VP16 transcription factor ('Ga14-VP16' [sic]); Tango cell line; host or cells: Tango GPCR-bla U2OS; settings: varying CXCL11, fixed peptide concentration
T2 sequence (P49682 1-368): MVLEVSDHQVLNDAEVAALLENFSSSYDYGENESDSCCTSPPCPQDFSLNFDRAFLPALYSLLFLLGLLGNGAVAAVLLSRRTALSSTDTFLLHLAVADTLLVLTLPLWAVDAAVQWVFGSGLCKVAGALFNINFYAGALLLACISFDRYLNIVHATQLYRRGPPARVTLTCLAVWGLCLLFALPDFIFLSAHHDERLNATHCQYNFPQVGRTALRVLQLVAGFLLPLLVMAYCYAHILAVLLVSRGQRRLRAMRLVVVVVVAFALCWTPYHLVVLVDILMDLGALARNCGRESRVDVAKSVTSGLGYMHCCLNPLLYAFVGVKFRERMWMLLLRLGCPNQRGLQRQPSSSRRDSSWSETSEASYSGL
Excerpt: as §1
Positive allosteric modulation was confirmed with an additional test method using a dose response setting for CXCL11. In positive allosteric modulator assay method 2 (PAM2), cells were diluted in Assay Media to an appropriate cell density, and were added to the assay plate. CXCR3-bla U2OS were stimulated with varying concentrations of CXCL11 ligand and a pre-determined fixed concentration of either SG-3-00802 or SG-3-06683 and incubated for 30 minutes. Ligand (CXCL9, CXCL10, or CXCL11) was added at increasing concentrations to wells containing the test compound.

[2] = test system: Unstimulated human T cells; assay: Transwell T cell migration towards CXCR3 ligands; format: cell-based; settings: CXCL11, 2.5 hours
Experimental: T cell migration towards CXCR3 ligands in the presence of SG-3-00802 and SG-3-06683 was tested using a Transwell migration assay. Suboptimal concentrations of each ligand (CXCR3 ligands CXCL9, CXCL10, and CXCL11) were added to the bottom of the transwell with increasing doses of SG-3-00802 or SG-3-006683. An optimal concentration of ligand was used as positive control, as indicated in the graphs.
Unstimulated human T cells were resuspended in AIM V serum-free media, then were added to the top chamber of a […] polycarbonate Transwell insert and incubated with the indicated concentrations of the ligands and peptides in the bottom chamber for 2.5 hours at 37° C. T cells that migrated to the bottom chamber were collected, stained with anti-CD3 antibody, and counted using Beckman Coulter Cytoflex flow cytometer. 123count eBeads counting beads were added to each of the wells for obtaining the absolute cell counts.

[3] = target: T3, human chemokine (C-X-C motif) receptor 3 (human, UniProt P49682 1-368); assay: hit of DualSystems LRC-TriCEPS capture and SelectScreen reporter assay, confirmed in PathHunter beta-arrestin GPCR panel
T3 construct: whole, on cells; The PathHunter gpcrMAX panel uses a different, undescribed construct; also called CXCR3
T3 sequence (looked up): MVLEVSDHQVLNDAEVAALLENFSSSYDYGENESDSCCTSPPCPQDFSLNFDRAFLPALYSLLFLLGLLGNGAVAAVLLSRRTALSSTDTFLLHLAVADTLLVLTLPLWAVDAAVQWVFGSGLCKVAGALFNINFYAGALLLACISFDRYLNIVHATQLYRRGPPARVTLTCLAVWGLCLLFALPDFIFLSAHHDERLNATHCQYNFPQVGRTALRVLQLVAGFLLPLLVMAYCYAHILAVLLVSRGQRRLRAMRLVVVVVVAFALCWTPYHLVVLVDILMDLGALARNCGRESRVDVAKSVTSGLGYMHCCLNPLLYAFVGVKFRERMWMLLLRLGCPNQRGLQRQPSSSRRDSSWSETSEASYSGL

| Molecule | Activation of CXCR3 [1] | activity of CXCL11 on the CXCR3 receptor (PAM2) (CXCR3) | T cell migration to suboptimal level of ligand [2] | binding result [3] |
| --- | --- | --- | --- | --- |
| GQRQKHKPNECIVMVRGKRRIIKCKECMPKVSPRVKM (not fully specified; cysteine pairing not given here) [SG-3-06683] | maintained | enhanced the activity of the endogenous ligand CXCL11 | increased migration | – |
| MKVRPSVKPMCEKCKIIRRKGRVMVICENPKHKQRQG (also called PEP802) [SG-3-00802] | – | – | – | binds |
